Results: patent US20230265151A1, “GIP/GLP1 CO-AGONIST COMPOUNDS” (priority 2020, published 2023)

T1: human GIP receptor (human, UniProt P48546 22-466)
T1 construct: whole, on cells; also called hGIPR; human glucose-dependent insulinotropic polypeptide receptor
T1 sequence (looked up): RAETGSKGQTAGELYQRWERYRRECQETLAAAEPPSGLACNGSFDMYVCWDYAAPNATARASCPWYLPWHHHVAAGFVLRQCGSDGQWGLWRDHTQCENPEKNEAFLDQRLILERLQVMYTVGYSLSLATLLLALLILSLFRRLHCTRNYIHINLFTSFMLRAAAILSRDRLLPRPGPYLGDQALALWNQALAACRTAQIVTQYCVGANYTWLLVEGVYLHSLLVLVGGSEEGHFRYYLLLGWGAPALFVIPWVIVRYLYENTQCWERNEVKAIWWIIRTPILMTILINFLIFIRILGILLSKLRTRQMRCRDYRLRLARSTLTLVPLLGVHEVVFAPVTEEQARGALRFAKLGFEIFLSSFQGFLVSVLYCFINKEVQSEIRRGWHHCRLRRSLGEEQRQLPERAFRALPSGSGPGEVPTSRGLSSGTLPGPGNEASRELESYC


Assays:
[1] = target: T1, human GIP receptor; assay: SPA competition vs [125I]-GIP, hGIPR membranes
[2] = target: T2, human glucagon receptor (human, UniProt P47871 26-477); assay: SPA competition vs [125I]-Gcg, hGcgR membranes
T2 construct: whole, on cells; also called hGCGR; hGcgR
T2 sequence (P47871 26-477): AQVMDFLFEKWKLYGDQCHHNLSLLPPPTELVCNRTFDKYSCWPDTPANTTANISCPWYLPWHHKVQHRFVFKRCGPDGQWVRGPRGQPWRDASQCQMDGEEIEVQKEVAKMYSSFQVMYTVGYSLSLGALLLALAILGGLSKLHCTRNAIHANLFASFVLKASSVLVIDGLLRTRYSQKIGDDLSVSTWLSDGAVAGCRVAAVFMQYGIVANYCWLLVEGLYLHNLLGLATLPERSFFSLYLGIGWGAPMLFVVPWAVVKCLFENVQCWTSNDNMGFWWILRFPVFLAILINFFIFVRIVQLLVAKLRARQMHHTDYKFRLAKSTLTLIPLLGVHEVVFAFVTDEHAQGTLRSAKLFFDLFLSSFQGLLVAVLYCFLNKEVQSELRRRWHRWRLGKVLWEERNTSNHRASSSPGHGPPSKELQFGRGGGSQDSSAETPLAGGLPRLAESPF
Procedure: The binding buffer contains 25 mM 4-(2-hydroxyethyl)-1-piperazineethanesulfonic acid (HEPES), pH 7.4, 2.5 mM CaCl₂, 1 mM MgCh, 0.1% (w/v) bacitracin (Research Products), 0.003% (w/v) Polyoxyethylenesorbitan monolaurate (TWEEN®-20), and Roche Complete™ Protease Inhibitors without EDTA. […] Plates are sealed and mixed on a plate shaker (setting 6) for 1 minute and read with a PerkinElmer Trilux MicroBeta® scintillation counter after 12 hours of incubation/settling time at room temperature.
Data are analyzed using four-parameter (curve maximum, curve minimum, IC₅₀, Hill slope) nonlinear regression routines (Genedata Screener, version 12.0.4, Genedata AG, Basal, Switzerland). […] Values for Kᵢ are reported as the geometric mean, with error expressed as the standard error of the mean (SEM) and n is equal to the number of independent replicates (determined in assays performed on different days).

[3] = target: T3, human GLP-1 receptor (human, UniProt P43220 24-463); assay: SPA competition vs [125I]-GLP-1, hGLP-1R membranes
T3 construct: whole, on cells; also called hGLP-1R; human glucagon-like peptide-1 receptor
Method in brief: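 Kᵢ values are geometric means (SEM) over replicates run on separate days, derived from IC₅₀ of four-parameter curve fits. Buffer: HEPES 25 mM pH 7.4 with CaCl₂ 2.5 mM, MgCl₂ 1 mM, bacitracin 0.1%, TWEEN-20 0.003%, EDTA-free protease inhibitors.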

Row | Binder | Ki [1] [pM] | Ki [2] [pM] | Ki [3] [pM]
1 | YXEGTXTSDXXIXLDXKAQXKFIXXLIEGGPSSGAPPPS (Aib2, αMeF(2F)6, 4Pal10, Aib11, αMeL13, Orn16, K17(Z1), Aib20, K21(Z1), D-Glu24, αMeY25, C-term NH2; Z1=AEEA3-(γ-Glu)-CO-(CH2)10-CH3) | 21.8 | 12200 | 194
2 | YXEGTXTSDXXIXLDXIAQXEFIKXLIKGGPSSGAPPPS (Aib2, αMeF(2F)6, 4Pal10, Aib11, αMeL13, Orn16, Aib20, K24(Z1), αMeY25, K28(Z1), C-term NH2; Z1=AEEA2-(γ-Glu)-CO-(CH2)12-CO2H) | 114 | 135000 | 939
3 | YXEGTXTSDXXIXLDXIAQXEFIKXLIKGGPSSGAPPPS (Aib2, αMeF(2F)6, 4Pal10, αMeS11, αMeL13, Orn16, Aib20, K24(Z1), αMeY25, K28(Z1), C-term NH2; Z1=AEEA2-(γ-Glu)-CO-(CH2)12-CO2H) | 49.1 | 328000 | 863
4 | YXEGTXTSDXXIXLDXKAQXGFIXXLIKGGPSSGAPPPS (Aib2, αMeF(2F)6, 4Pal10, Aib11, αMeL13, Orn16, K17(Z1), Aib20, D-Glu24 (printed e), αMeY25, K28(Z1), C-term NH2; Z1=AEEA2-(γ-Glu)-CO-(CH2)10-CH3, G at position 21) | 19.7 | 135000 | 188
5 | YXEGTXTSDXXIXLDXKAQXKFIXXLIEGGPSSGAPPPS (Aib2, αMeF(2F)6, 4Pal10, Aib11, αMeL13, Orn16, K17(Z1), Aib20, K21(Z1), D-Glu24, αMeY25, C-term NH2; Z1=AEEA2-(γ-Glu)-CO-(CH2)10-CH3) | 16.2 | 2910 | 234
6 | YXEGTXTSDXXIXLDXKAQXKFIXXLIEGGPSSGAPPPS (Aib2, αMeF(2F)6, 4Pal10, Aib11, αMeL13, Orn16, K17(Z1), Aib20, K21(Z1), D-Glu24, αMeY25, C-term NH2; Z1=AEEA-(γ-Glu)-(10-(4-carboxyphenoxy)decanoyl)) | 46 | 118000 | 673
7 | YXEGTXTSDXXIXLDXIAQXEFIKXLIKGGPSSGAPPPS (Aib2, αMeF(2F)6, 4Pal10, Aib11, αMeL13, Orn16, Aib20, K24(Z1), αMeY25, K28(Z1), C-term NH2; Z1=AEEA2-(γ-Glu)-(10-(4-carboxyphenoxy)decanoyl)) | 43.2 | 44600 | 557
8 | YXEGTXTSDXXIXLDXKAQXTFIXXLIKGGPSSGAPPPS (Aib2, αMeF(2F)6, 4Pal10, Aib11, αMeL13, Orn16, K17(Z1), Aib20, D-Glu24, αMeY25, K28(Z1), C-term NH2; Z1=AEEA2-(γ-Glu)-CO-(CH2)10-CH3, T at position 21) | 16.6 | 60600 | 265
9 | YXEGTXTSDXXIXLDXKAQXKFIXXLIEGGPSSGAPPPS (Aib2, αMeF(2F)6, 4Pal10, Aib11, αMeL13, Orn16, K17(Z1), Aib20, K21(Z1), D-Glu24, αMeY25, C-term NH2; Z1=AEEA-(γ-Glu)-CO-(CH2)12-CO2H) | 78.2 | 230000 | 1850
